{"source": "the RNAGym collection of RNA variant scans (doi:10.1021/acssynbio.7b00057)", "parents": {"B1": {"name": "Pistol ribozyme (parent)", "chain": "GGGUCGUUGUUCCAUAAUCGCGUGGAUAUGGCACGCAAGUUUCUACCGGGCACCGUAAAUGUCCGACUGGAGCCGUUCGGGCGGCUAUAAACAGACCUCAGGCCCGAAGCGUGGCGGCACCUGCCGCCGGUGGUAAAAAAGAUCGGAAGAGCACACGUCU"}}, "data": [{"variants_of": "B1", "experiment": "aptazyme ON/OFF ratio, guanine; higher = stronger switching; co-transcriptional cleavage with and without guanine", "values": [{"variant": "U7C U8A U10C U11G C12G C13A", "aptazyme ON/OFF ratio": 1.15}, {"variant": "U7G U8G G9C U10C U11A C12A C13G", "aptazyme ON/OFF ratio": 1.23}, {"variant": "U7G U8A G9U U10C U11A C13A", "aptazyme ON/OFF ratio": 1.1}, {"variant": "G9C C13A", "aptazyme ON/OFF ratio": 1.02}, {"variant": "U8G G9U U10G U11C C12G C13U", "aptazyme ON/OFF ratio": 1.02}, {"variant": "U7G U8G U10C U11A C12G C13G", "aptazyme ON/OFF ratio": 1.23}, {"variant": "U7C U8G G9U U10G C12A C13U", "aptazyme ON/OFF ratio": 1.15}, {"variant": "U7A G9A U10A U11A C12A C13G", "aptazyme ON/OFF ratio": 1.13}, {"variant": "U7G U8G G9A U10C U11C C12G C13U", "aptazyme ON/OFF ratio": 1.12}, {"variant": "U7G G9A U10A U11G", "aptazyme ON/OFF ratio": 2.05}, {"variant": "U7C U8G G9C U10A U11A C13G", "aptazyme ON/OFF ratio": 1.08}, {"variant": "U7A U8A G9A C12U C13U", "aptazyme ON/OFF ratio": 1.17}, {"variant": "U7C G9C U10A U11G C12U C13U", "aptazyme ON/OFF ratio": 1.13}, {"variant": "U7C U8G G9U U10G U11A C12U", "aptazyme ON/OFF ratio": 1.13}, {"variant": "U7C U10G U11A", "aptazyme ON/OFF ratio": 1.1}, {"variant": "U7G U8C G9U U11C C12A C13G", "aptazyme ON/OFF ratio": 1.32}, {"variant": "U7G G9C U10C U11A C12A C13U", "aptazyme ON/OFF ratio": 1.25}, {"variant": "U7G U8G U10G C12G", "aptazyme ON/OFF ratio": 1.3}, {"variant": "U10C U11G C12G", "aptazyme ON/OFF ratio": 1.25}, {"variant": "U7C U8G G9U", "aptazyme ON/OFF ratio": 3.71}, {"variant": "U8G G9A U10G", "aptazyme ON/OFF ratio": 2.04}, {"variant": "U7A G9U U10G U11C C13A", "aptazyme ON/OFF ratio": 1.1}, {"variant": "U7A U8G U10G U11G C13G", "aptazyme ON/OFF ratio": 1.29}, {"variant": "U7A U10A C12G C13U", "aptazyme ON/OFF ratio": 1.27}, {"variant": "U7C U8C U10C C12G", "aptazyme ON/OFF ratio": 1.16}, {"variant": "U7A U8G G9U U10C C12A C13U", "aptazyme ON/OFF ratio": 1.35}, {"variant": "U7C G9C U10A C13U", "aptazyme ON/OFF ratio": 1.05}, {"variant": "U11A C12U C13U", "aptazyme ON/OFF ratio": 1.45}, {"variant": "U7G G9C U10G U11A C12G", "aptazyme ON/OFF ratio": 1.28}, {"variant": "U8G U10G C12G", "aptazyme ON/OFF ratio": 1.3}, {"variant": "U7G U8C G9A U11C C12A", "aptazyme ON/OFF ratio": 2}, {"variant": "U8C G9A U10C U11C C12U C13A", "aptazyme ON/OFF ratio": 1.1}, {"variant": "U7A U8C G9U C12G", "aptazyme ON/OFF ratio": 1.45}, {"variant": "U7A U8C U10C C13G", "aptazyme ON/OFF ratio": 1.32}, {"variant": "U7C U10A U11G C13U", "aptazyme ON/OFF ratio": 1.28}, {"variant": "U10C U11A C12A C13U", "aptazyme ON/OFF ratio": 1.35}, {"variant": "U7C U8G G9C U10G U11A C12G C13A", "aptazyme ON/OFF ratio": 1.24}, {"variant": "U8C G9C U10G U11A C12A C13A", "aptazyme ON/OFF ratio": 1.16}, {"variant": "U7A U8G G9A U10C U11C C12U", "aptazyme ON/OFF ratio": 1.08}, {"variant": "U7G U8C G9C U11C C12G C13U", "aptazyme ON/OFF ratio": 1.11}, {"variant": "U8A G9A U10G U11C C12G C13G", "aptazyme ON/OFF ratio": 1.14}, {"variant": "U7G U10A C12G C13A", "aptazyme ON/OFF ratio": 1.15}, {"variant": "U7G U8A G9U U10C U11G C12A C13A", "aptazyme ON/OFF ratio": 1.08}, {"variant": "U8G G9C U10G U11G C12U", "aptazyme ON/OFF ratio": 1.23}, {"variant": "U7G U8C G9A U10A U11C C12G", "aptazyme ON/OFF ratio": 1.13}, {"variant": "U7C U10A U11G C12A C13G", "aptazyme ON/OFF ratio": 0.975}, {"variant": "U7C U8C U10A C13U", "aptazyme ON/OFF ratio": 1.04}, {"variant": "U7A U8G G9A U10G U11C C12A", "aptazyme ON/OFF ratio": 1.45}, {"variant": "U7C U8G U10C U11G C13U", "aptazyme ON/OFF ratio": 2.15}, {"variant": "U7C U8A G9A U10A C12G C13G", "aptazyme ON/OFF ratio": 1.24}, {"variant": "G9A U10A U11G C12A C13U", "aptazyme ON/OFF ratio": 1.26}, {"variant": "U8G G9U U10G U11C", "aptazyme ON/OFF ratio": 1.02}, {"variant": "U8G G9C U10C U11C C12A C13G", "aptazyme ON/OFF ratio": 1.06}, {"variant": "U7C U8G U10C C12A C13G", "aptazyme ON/OFF ratio": 1.1}, {"variant": "U7A U8G U10A U11G C12A C13U", "aptazyme ON/OFF ratio": 1.08}, {"variant": "U7C U8G G9U U10A U11C C12A", "aptazyme ON/OFF ratio": 1.14}, {"variant": "G9U U10C U11G C12G C13A", "aptazyme ON/OFF ratio": 1.17}, {"variant": "U7A G9A U10A U11G C12U C13U", "aptazyme ON/OFF ratio": 1.42}, {"variant": "U7A G9A U10A U11G C12U C13A", "aptazyme ON/OFF ratio": 1.17}, {"variant": "U7G U8A G9C U10A C12A C13A", "aptazyme ON/OFF ratio": 1.05}, {"variant": "U7C U8A G9U U10C U11G C12U", "aptazyme ON/OFF ratio": 1.21}, {"variant": "U8G G9A U11A C13A", "aptazyme ON/OFF ratio": 1.14}, {"variant": "U7C U8C G9A U11G C12G C13A", "aptazyme ON/OFF ratio": 1.23}, {"variant": "U7A U8C G9C U10G U11C C12A C13A", "aptazyme ON/OFF ratio": 1.05}, {"variant": "U7A U8A U10G C12G C13A", "aptazyme ON/OFF ratio": 1.17}, {"variant": "U8G U11A", "aptazyme ON/OFF ratio": 3.01}, {"variant": "U7G U8G G9U U10G U11G C12A C13A", "aptazyme ON/OFF ratio": 1.04}, {"variant": "U7C U8A G9U U11C C12U C13G", "aptazyme ON/OFF ratio": 1}, {"variant": "U7G U8A G9A U10G U11A C12G C13U", "aptazyme ON/OFF ratio": 1.14}, {"variant": "U7A U8A C13U", "aptazyme ON/OFF ratio": 1.69}, {"variant": "U7G U8C G9U U10G C12U C13A", "aptazyme ON/OFF ratio": 1.29}, {"variant": "U8A G9A U10G C12G", "aptazyme ON/OFF ratio": 1.16}, {"variant": "U7C U8A U10G U11C C12U C13A", "aptazyme ON/OFF ratio": 1.35}, {"variant": "U7A U8C G9U U10C U11C C12G C13U", "aptazyme ON/OFF ratio": 1.04}, {"variant": "U8A U10C C12G", "aptazyme ON/OFF ratio": 1.3}, {"variant": "U7A U8A U10C U11C C12U C13A", "aptazyme ON/OFF ratio": 1.04}, {"variant": "U7A U8C C13A", "aptazyme ON/OFF ratio": 1.26}, {"variant": "U7G U8A G9C U10A C13A", "aptazyme ON/OFF ratio": 1.03}, {"variant": "U7G U8A U11G", "aptazyme ON/OFF ratio": 1.24}, {"variant": "U7A U8G G9U U11G C12A C13U", "aptazyme ON/OFF ratio": 1.2}, {"variant": "U7A U8A G9A U10A U11A C12U", "aptazyme ON/OFF ratio": 1.17}, {"variant": "U7A U8C G9A U10A U11C C13A", "aptazyme ON/OFF ratio": 1.02}, {"variant": "U7G U8A G9C U10G U11C C12U", "aptazyme ON/OFF ratio": 1.05}, {"variant": "U7C U8C G9C U10A C12U C13U", "aptazyme ON/OFF ratio": 1.11}]}]}
